Source: US20220315654A1 (NOVIMMUNE, published 2022)
Residue numbers refer to the chain shown, from its start.

T1: recombinant human PD-L2 soluble protein (biotinylated) (human, UniProt Q9BQ51 20-220, limits assumed, biotinylated)
T1 construct: Bought soluble protein
T1 sequence (looked up): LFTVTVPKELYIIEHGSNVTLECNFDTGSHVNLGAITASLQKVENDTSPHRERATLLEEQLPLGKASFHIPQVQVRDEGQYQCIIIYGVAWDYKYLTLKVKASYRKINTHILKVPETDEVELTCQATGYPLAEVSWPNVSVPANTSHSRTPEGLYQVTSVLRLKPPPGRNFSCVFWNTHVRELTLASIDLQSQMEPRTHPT

B1: S100 anti-PD-L1 mAb (antibody, human IgG1, lambda, V domains shown)
VH: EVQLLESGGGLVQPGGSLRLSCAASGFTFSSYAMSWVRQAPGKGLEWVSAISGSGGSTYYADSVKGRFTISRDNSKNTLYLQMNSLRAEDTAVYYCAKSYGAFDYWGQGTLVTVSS
VL: QSVLTQPPSASGTPGQRVTISCSGSSSNIENKPVNWYQQLPGTAPKLLIYHDTTRPSGVPDRFSGSKSGTSASLAISGLQSEDEADYYCAAWDFATWPATEVFGGGTKLTVLG
notes: Bivalent monospecific anti-PD-L1 antibody; also called anti-PD-L1 mAb 5100
B2: S46 bsAb (bispecific antibody, human IgG1, kappa, lambda)
common heavy chain: not shown
kappa light chain (anti-CD47 K2): not shown
lambda light chain (anti-PD-L1 S46): QSALTQPASVSGSPGQSITISCTGTSSDVLRPPLVSWYQQHPGKAPKLMIYFASLRPSGVSNRFSGSKSGNTASLTISGLQAEDEADYYCSSWDNAGDGHVFGGGTKLTVLGQPKAAPSVTLFPPSSEELQANKATLVCLISDFYPGAVTVAWKADSSPVKAGVETTTPSKQSNNKYAASSYLSLTPEQWKSHRSYSCQVTHEGSTVEKTVAPTECS
notes: also called K2xS46 CD47xPD-L1 bispecific antibody; K2xS46
B3: K2×S79 CD47×PD-L1 bispecific antibody (bispecific antibody, human IgG1, kappa, lambda)
heavy: not shown
light 1: not shown
light 2: B2 lambda light chain (anti-PD-L1 S46) with L30F, N95H, A96T
notes: also called K2xS79; S79 bsAb
B4: K2×S23 CD47×PD-L1 bispecific antibody (bispecific antibody, human IgG1, kappa, lambda)
heavy: not shown
light 1: not shown
light 2: B2 lambda light chain (anti-PD-L1 S46) with L30A, R31K, P32I
notes: also called K2xS23; K2×S23 bsAb
B5: S79 anti-PD-L1 mAb (antibody, human IgG1, lambda, V domains shown)
VH: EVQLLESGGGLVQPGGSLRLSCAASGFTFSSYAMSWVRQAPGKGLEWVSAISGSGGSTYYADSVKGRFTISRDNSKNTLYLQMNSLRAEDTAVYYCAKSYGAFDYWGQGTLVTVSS
VL: QSALTQPASVSGSPGQSITISCTGTSSDVFRPPLVSWYQQHPGKAPKLMIYFASLRPSGVSNRFSGSKSGNTASLTISGLQAEDEADYYCSSWDHTGDGHVFGGGTKLTVLG
notes: Bivalent monospecific IgG1 anti-PD-L1 antibody; also called S79_Sc3_1G7_VLCL2 aPDL1 IGLV2-23; anti-PD-L1 mAb S79
B6: K2×S15 CD47×PD-L1 bispecific antibody (bispecific antibody, human IgG1, kappa, lambda)
heavy: not shown
light 1: not shown
light 2: QSALTQPASVSGSPGQSITISCTGTSSDVVKNNFVSWYQQHPGKAPKLMIYFGSVRPSGVSNRFSGSKSGNTASLTISGLQAEDEADYYCSSWDEPDRPFGGGTKLTVLGQPKAAPSVTLFPPSSEELQANKATLVCLISDFYPGAVTVAWKADSSPVKAGVETTTPSKQSNNKYAASSYLSLTPEQWKSHRSYSCQVTHEGSTVEKTVAPTECS
notes: also called K2xS15; K2×S15 bsAb
B7: K2×S58 CD47×PD-L1 bispecific antibody (bispecific antibody, human IgG1, kappa, lambda)
heavy: not shown
light 1: not shown
light 2: B6 light 2 with T23N, G24S, T25P, R56T, P57G, S58P
notes: also called K2xS58; K2×S58 bsAb
B8: K2×S93 CD47×PD-L1 bispecific antibody (bispecific antibody, human IgG1, kappa, lambda)
heavy: not shown
light 1: not shown
light 2: QSVLTQPPSASGTPGQRVTISCVSTSDHIAHKPVNWYQQLPGTAPKLLIYHDTSRPDGVPDRFSGSKSGTSASLAISGLQSEDEADYYCAAWDFATWPATEVFGGGTKLTVLGQPKAAPSVTLFPPSSEELQANKATLVCLISDFYPGAVTVAWKADSSPVKAGVETTTPSKQSNNKYAASSYLSLTPEQWKSHRSYSCQVTHEGSTVEKTVAPTECS
notes: also called K2xS93; K2×S93 bsAb
B9: K2×S94 CD47×PD-L1 bispecific antibody (bispecific antibody, human IgG1, kappa, lambda)
heavy: not shown
light 1: not shown
light 2: B8 light 2 with V23I, T25G, D27V, H28D, R55T
notes: also called K2xS94; S94 bsAb
B10: K2×S96 CD47×PD-L1 bispecific antibody (bispecific antibody, human IgG1, kappa, lambda)
heavy: not shown
light 1: not shown
light 2: B8 light 2 with V23N, S24L, T25P, D27A, H28D, R55V, P56V, D57T
notes: also called K2xS96; K2×S96 bsAb

Assays:
[1] = target: T2, human PD-L1 on cells (human PD-L1-transfected CHO cells; IFNg-induced HT-1080 tumor cells) (human, UniProt Q9NZQ7 19-290); assay: inhibition of human PD-1-moFc binding to IFNg-induced PD-L1+CD47+ HT-1080 cells, CellInsight CX5
T2 construct: whole, on cells; CHO transfectants are negative for human CD47; HT-1080 cells also carry CD47; also called hPD-L1-transfected CHO cells; PD-L1+CD47+ HT-1080

[2] = target: T1, recombinant human PD-L2 soluble protein …; assay: sandwich ELISA: antibody captured on coated anti-Fc, biotinylated recombinant human PD-L2 titrated, streptavidin-HRP/Amplex red fluorescence
[3] = target: T3, recombinant mouse PD-L1 soluble protein (biotinylated) (mouse, UniProt Q9EP73 19-239, limits assumed, biotinylated); assay: sandwich ELISA: antibody captured on coated anti-human Fc, biotinylated recombinant mouse PD-L1 titrated, streptavidin-HRP/Amplex red fluorescence
T3 construct: Two sources are named for the two assays

[4] = target: T4, recombinant human PD-L1 soluble protein (biotinylated) (human, UniProt Q9NZQ7 19-238, biotinylated); assay: sandwich ELISA: antibody captured on coated anti-human Fc, biotinylated recombinant human PD-L1 titrated (x axis, nM), streptavidin-HRP/Amplex red fluorescence
T4 construct: Bought soluble protein; also called hPD-L1

[5] = target: T5, recombinant cynomolgus monkey PD-L1 soluble protein (biotinylated) (cynomolgus monkey, UniProt G7PSE7 19-238, biotinylated (site not stated); vendor tag not carried in the letters); assay: sandwich ELISA: antibody captured on coated anti-human Fc, biotinylated recombinant cynomolgus PD-L1 titrated (x axis, nM), streptavidin-HRP/Amplex red fluorescence
T5 construct: Two suppliers are named for the two assays; also called Cyno PD-L1; cynomolgus PD-L1; not shown: vendor tag(s) of the recombinant proteins (Sino Biological; Acrobiosystems #PD1-052H4) and the biotin label

[6] = target: T3, recombinant mouse PD-L1 soluble protein …; assay: sandwich ELISA: antibody captured on coated anti-human Fc, biotinylated recombinant mouse PD-L1 titrated (x axis, nM), streptavidin-HRP/Amplex red fluorescence
[7] = target: T2, human PD-L1 on cells (human …); assay: inhibition of human PD-1-moFc binding to human PD-L1-transfected CHO cells, CellInsight CX5
[8] = target: T4, recombinant human PD-L1 soluble protein …; assay: BLI (OctetRED96), biotinylated PD-L1 on streptavidin biosensors, bsAb in solution, 1:1 global fit, 30 °C
[9] = target: T3, recombinant mouse PD-L1 soluble protein …; assay: BLI (OctetRED96), biotinylated mouse PD-L1 on streptavidin biosensors, bsAb in solution, 1:1 global fit, 30 °C
[10] = target: T5, recombinant cynomolgus monkey PD-L1 …; assay: BLI (OctetRED96), biotinylated cynomolgus PD-L1 on streptavidin biosensors, bsAb in solution, 1:1 global fit, 30 °C
[11] = target: T6, human CD47 on cells (Raji, Nalm-6, HT-1080 tumor cells, human red blood cells) (human, UniProt Q08722 19-323); assay: flow cytometry on human red blood cells (CD47+, PD-L1-), detection with AF647 anti-human Fc F(ab')2
T6 construct: whole, on cells; Raji, Nalm-6 and red blood cells carry no or very little PD-L1; HT-1080 carries both targets; also called IAP

T4 sequence (Q9NZQ7 19-238 limits assumed): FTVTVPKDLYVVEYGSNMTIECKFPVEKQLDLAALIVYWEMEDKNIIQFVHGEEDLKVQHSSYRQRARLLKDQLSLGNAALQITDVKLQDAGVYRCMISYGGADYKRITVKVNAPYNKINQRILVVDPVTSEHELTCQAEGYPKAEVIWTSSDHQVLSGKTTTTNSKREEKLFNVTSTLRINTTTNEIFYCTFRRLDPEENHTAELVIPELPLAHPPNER
T5 sequence (G7PSE7 entry or part of it limits assumed): as the sequence (Q9NZQ7 19-238 limits assumed) above, with A33T, A34S, S62N, R68Q, Q82R, F173L, T185A, T192I, H215L counted along it
T2 sequence (Q9NZQ7 19-290): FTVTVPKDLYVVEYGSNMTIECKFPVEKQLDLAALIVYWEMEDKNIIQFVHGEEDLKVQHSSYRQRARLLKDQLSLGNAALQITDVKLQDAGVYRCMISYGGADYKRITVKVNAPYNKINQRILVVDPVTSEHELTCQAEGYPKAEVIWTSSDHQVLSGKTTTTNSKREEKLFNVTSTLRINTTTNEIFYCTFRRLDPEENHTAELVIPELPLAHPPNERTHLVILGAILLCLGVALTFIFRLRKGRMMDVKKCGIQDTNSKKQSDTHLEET
T3 sequence (Q9EP73 19-239 limits assumed): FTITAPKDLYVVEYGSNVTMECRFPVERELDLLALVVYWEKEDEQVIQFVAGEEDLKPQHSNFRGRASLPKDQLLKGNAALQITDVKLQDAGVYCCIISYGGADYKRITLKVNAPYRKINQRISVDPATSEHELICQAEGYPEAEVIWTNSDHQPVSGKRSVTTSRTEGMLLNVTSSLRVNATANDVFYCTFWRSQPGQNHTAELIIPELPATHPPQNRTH

Binder | binding result [2] | EC50 (read off the curve) [4] [pM] | EC50 (read off the curve) [5] [pM] | EC50 (read off the curve) [6] [pM] | Kd [8] [pM] | also measured
B1 | no binding (tested: about 40 nM PD-L2 protein) | ~70 | ~30 |  |  | IC50 [1]: 0.84 pM; binding result [3]: no binding (tested: about 33 nM PD-L1 protein)
B2 |  | ~100 | ~600 | ~70 |  | 
B3 | no binding (tested: about 40 nM PD-L2 protein) | ~70 | ~30 | ~30 | 500 | IC50 [7]: 30 pM; Kd [9]: 520 pM; Kd [10]: 1350 pM
B4 | no binding (tested: about 40 nM PD-L2 protein) | ~100 |  |  | 920 | binding result [11]: binds; binding result [6]: binds
B5 | no binding (tested: about 40 nM PD-L2 protein) | ~70 | ~30 | ~30 |  | IC50 [1]: 2.52 pM
B6 |  |  |  |  | 3000 | 
B7 |  |  |  |  | 830 | 
B8 |  |  |  |  | 700 | 
B9 |  | ~70 | ~30 |  | 700 | IC50 [7]: 50 pM; binding result [3]: no binding (tested: about 33 nM PD-L1 protein)
B10 |  |  |  |  | 800 | 
